± gives the uncertainty stated by the source.

The values below come from the supplement of paper PMC12042874.

The data set can be described thus: amyloid nucleation score (Sup35N fusion, yeast selection) (log enrichment); library NNK1; higher = more nucleation; inactive = no reads after selection. In short, it runs like this:
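For the nucleation score, DiMSum gave the log enrichment of output over input reads, centred on the mode score of non-aggregating sequences. Psi-negative yeast expressing Sup35N fused to peptides of 20 random codons were induced with 100 μM copper sulfate for 24 hours and grown 7 days at 30°C on medium lacking adenine and uracil. Input and output plasmid inserts were Illumina-sequenced, and sequences with under 100 input reads were excluded.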
Turning to SWTKVHLLVQAL, the amyloid nucleation score was -1.14 ± 0.86.

With SWTVGSMLSLDIWHRVYLTT, the amyloid nucleation score was -0.058 ± 0.44.

SYDRNDFLGERSVGMH registered an amyloid nucleation score of 0.736 ± 0.36.

SYFFGACCVGMCRLWNLFYS displayed an amyloid nucleation score of 0.857 ± 0.52.

SYGRLVGTWL had an amyloid nucleation score of -0.111 ± 0.54.

As for SYKLAVIRKM, the amyloid nucleation score is -0.28 ± 0.24.

SYLTGAEFFSTVRK showed an amyloid nucleation score of -0.745 ± 1.7.

With SYNRIILTFWSFLL, the amyloid nucleation score came out at 1.13 ± 0.35.

For the substance SYPFWYSHMIHCYRFAIFGL, the amyloid nucleation score is -2.73 ± 2.4.

The substance SYQLSSVMDLAWMTHSTFGS gave an amyloid nucleation score of 1.8 ± 0.2.

For SYQSDDLWQETKPALSPLLE, the amyloid nucleation score stood at 0.119 ± 0.46.

Take SYRGVRIGSGGLMYRGANSF: the amyloid nucleation score entry is “inactive”.

SYSYDARNCNNTRDGNYNFL returned an amyloid nucleation score of -1.99 ± 1.1.

For the substance SYYRLGACSRCHYFFMIEAR, the amyloid nucleation score entry was “inactive”.

In the case of TAESQAKQLSSNRKVGLTPS, the amyloid nucleation score amounted to 0.549 ± 0.27.

Take TAMKILPAQRGCIYVWHNRR: the amyloid nucleation score result was “inactive”.

Substance TASCVIMELPVGTNDKYVWT yielded an amyloid nucleation score of 0.296 ± 0.5.

TASIDEQHHWTRQY came in with an amyloid nucleation score of 0.32 ± 0.36.

TATGGASETERTAVTMY registered an amyloid nucleation score of -0.609 ± 1.9.

On to TAWHLSMNALGNSSLDFKGR, for which the amyloid nucleation score is 1.51 ± 0.16.

As to TCHLLPSICKSLWNHDNHGL, the amyloid nucleation score entry is “inactive”.

The substance TCRDYCASVSEEQIWLMVYR displayed an amyloid nucleation score of 0.297 ± 0.67.

As to TCRFTHLLFWYFK, the amyloid nucleation score was found to be 0.246 ± 0.97.

TCVGDCGCIGWSTIFFSDYS showed an amyloid nucleation score of 1.43 ± 0.72.

Take TDADYTPHVQSVPYYAHLII: the amyloid nucleation score came out at 3.88 ± 0.14.

The substance TDAQWGIFYDENIYPLDVFC gave an amyloid nucleation score of 0.075 ± 0.33.

Substance TDCSSLC yielded an amyloid nucleation score of -0.373 ± 0.31.

With TDKSCRRNGTHAMVHFTPEL, the amyloid nucleation score was -1.99 ± 1.7.

In turn, TDSAVRDWTRR returned an amyloid nucleation score of 0.532 ± 0.79.

TDSCYHCNLYMYHSS showed an amyloid nucleation score of 0.723 ± 0.9.

TDSEVAFVNGTNSQRWFFGW registered an amyloid nucleation score of 1.07 ± 0.53.

Turning to TDVMSHGSAETGWCFLMSAF, the amyloid nucleation score was found to be 0.124 ± 0.7.

TDYIHLSIMIDFLGFTFQDR showed an amyloid nucleation score of 1.46 ± 0.43.

On to TEGTYDNSSCHSDALGECLW, for which the amyloid nucleation score is 0.281 ± 0.33.

The substance TFCLLSINLEFINVLRLFKS showed an amyloid nucleation score of 3.58 ± 0.12.

Turning to TFECIIWFLGATVMSMQLFI, the amyloid nucleation score stood at 1.93 ± 0.62.

The substance TFFCTYTYLWLICIIGQYYF registered an amyloid nucleation score of 3.44 ± 0.11.

As to TFGSVGYI, the amyloid nucleation score came to 0.116 ± 0.45.

Substance TFGTKRRLGL displayed an amyloid nucleation score of 1.47 ± 0.5.

As for TFHNSYLYGTRNVWMLYSVR, the amyloid nucleation score came to 3.47 ± 0.091.

Take TFIAGAI: the amyloid nucleation score is -0.44 ± 0.37.

For the substance TFIFAGDIT, the amyloid nucleation score is 1.38 ± 0.17.

Substance TFLTCYRPGPIDNSWRIVSM returned an amyloid nucleation score of 1.1 ± 0.41.

In the case of TFMLATDGV, the amyloid nucleation score amounted to 0.595 ± 0.69.

Substance TFMNRLPMNLDLLIGLTCNL displayed an amyloid nucleation score of 0.492 ± 0.38.

Substance TFPGSHLFTFLMMEGSLNHG yielded an amyloid nucleation score of 0.694 ± 0.64.

The substance TFQLKMWEHVVLPDVSMAST came in with an amyloid nucleation score of 0.669 ± 0.48.

TFRRFGYTELYCGENSLLEC gave an amyloid nucleation score of -0.036 ± 0.84.

TFSLCKWVHSANKGLVQMTF gave an amyloid nucleation score of 0.265 ± 0.41.

As for TFSWYRLRSVMGLVGNAAMI, the amyloid nucleation score stood at 0.31 ± 0.61.

For TFTCMPLLWLIFS, the amyloid nucleation score was found to be 6.029 ± 0.057.

TFTDS: the amyloid nucleation score turned out to be 0.176 ± 0.75.

With TFTLNFCGLQF, the amyloid nucleation score amounted to 7.124 ± 0.059.

On to TFVGLRVSAHRTQWALGDT, for which the amyloid nucleation score is -1.51 ± 2.4.

TFVLV: the amyloid nucleation score worked out at 0.332 ± 0.74.

TFVLYGCDRKVFRRNVVTAS displayed an amyloid nucleation score of 0.316 ± 0.35.

The substance TFVVFFCWLGS yielded an amyloid nucleation score of 5.12 ± 0.093.

For the substance TGDDSYDVLLVGLVKTSGVY, the amyloid nucleation score is -0.234 ± 0.34.

On to TGDLGRTGKVTLGTLEDSKI, for which the amyloid nucleation score is -0.694 ± 0.56.

For TGLLLLIRNICYCLNLQLWG, the amyloid nucleation score was found to be 0.271 ± 0.53.

In turn, TGLLSR registered an amyloid nucleation score of 1.33 ± 0.9.

TGLSWVYSFRIEYVKVGFY gave an amyloid nucleation score of 0.426 ± 0.9.

For the substance TGPKRLTDNREFRKF, the amyloid nucleation score was -1.01 ± 2.7.

Substance TGRAPSVLHNKR had an amyloid nucleation score of -0.842 ± 0.64.

Turning to TGSLVFLTLTLLLVCYLPIT, the amyloid nucleation score is 0.302 ± 0.43.

For the substance TGTPYLLHLNWNLGSGMSGT, the amyloid nucleation score stood at 0.451 ± 0.2.

With TGWLWYQHRWSDTWLPGTMR, the amyloid nucleation score is 2.04 ± 0.15.

THFVLE displayed an amyloid nucleation score of 0.53 ± 0.28.

Substance THLVTCKGGLSMPDLVYRHV gave an amyloid nucleation score of 0.183 ± 0.28.

THMGRTLSCFGMMSWSSDVA had an amyloid nucleation score of 5.88 ± 0.065.

As to THSIF, the amyloid nucleation score result was “inactive”.

Substance THSSGINVTPPDVCSLITLT showed an amyloid nucleation score of -0.159 ± 1.2.

As for THVIRVGNQRSLRVFSRGVS, the amyloid nucleation score came to 1.32 ± 0.41.

THVSDFLWDVNVSGNNTCSR displayed an amyloid nucleation score of 1.14 ± 0.37.

In turn, THWLNRTGCVRTHPVQSGKE registered an amyloid nucleation score of -1.09 ± 1.

Substance TIDIV came in with an amyloid nucleation score of 2.28 ± 0.13.

TIGLCAMYSAARLLV showed an amyloid nucleation score of 0.717 ± 0.93.

As to TIGPSGNLEGCVLSVGASNI, the amyloid nucleation score is -1.35 ± 1.2.

Regarding TIIVDDGWRAYSRLS, the amyloid nucleation score came to 0.22 ± 0.71.

As for TIRARMVCLNCQMVR, the amyloid nucleation score turned out to be 3.54 ± 0.079.

As for TISGLFLSRLYSKTMGGC, the amyloid nucleation score is 1.89 ± 0.62.

Take TISSLLFI: the amyloid nucleation score is -0.252 ± 0.47.

In turn, TIVELFYDRSLR displayed an amyloid nucleation score of 1.17 ± 0.33.

Turning to TIVSDGAQDFQHHS, the amyloid nucleation score entry was “inactive”.

Take TIWVEKLWDIYI: the amyloid nucleation score entry was “inactive”.

TIYTSSGVVMALVHRLHLVA: the amyloid nucleation score is -1.1 ± 0.68.

TKGFLSNGFLVWPVCIVILW: the amyloid nucleation score came out at 0.387 ± 0.77.

In turn, TKILRP came in with an amyloid nucleation score of 0.33 ± 0.22.

In turn, TKMVWASALWAHSPVMY returned an amyloid nucleation score of 0.724 ± 1.2.

TKNVLLTYGHPMLDMFAVVY: the amyloid nucleation score entry was “inactive”.

The substance TKPMIMSTFSEFCIPCTMRL yielded an amyloid nucleation score of 0.182 ± 0.55.

In turn, TKVGFFQRLGYEQVCNCKML showed an amyloid nucleation score of 0.244 ± 0.49.

Take TKWLLFLVRTRHVMMCGGVM: the amyloid nucleation score result was “inactive”.

Consider TLCINWKPFP, for which the amyloid nucleation score came to 0.308 ± 0.38.

The substance TLCQNSGKFCMYTWLSVYVD showed an amyloid nucleation score of 0.423 ± 0.26.

Substance TLDLWNVRFC yielded an amyloid nucleation score of -0.057 ± 1.4.

Substance TLFPVRNTMMFLESYS registered an amyloid nucleation score of -0.742 ± 0.41.

TLGAYQSCRGNVIMGQGTFV: the amyloid nucleation score was found to be 0.266 ± 0.46.

TLGPAWNVKFAWVFSFLVCI: the amyloid nucleation score amounted to 0.933 ± 0.7.

With TLIGFWPTRSFSSAVRYNPN, the amyloid nucleation score was -0.116 ± 1.

Regarding TLIWSCARHWV, the amyloid nucleation score was 1.44 ± 0.22.

Consider TLLSVTYSCIRMPVPMAYRS, for which the amyloid nucleation score was 4.42 ± 0.085.

The substance TLQNNLTFPDCLGLRCGSHV gave an amyloid nucleation score of 5.03 ± 0.085.

Substance TLQTTWLKNLGDLSSSREAS had an amyloid nucleation score of -0.184 ± 0.41.
